T1: 35S-methionine-labeled His6-tagged murine caspase-14
T1 sequence: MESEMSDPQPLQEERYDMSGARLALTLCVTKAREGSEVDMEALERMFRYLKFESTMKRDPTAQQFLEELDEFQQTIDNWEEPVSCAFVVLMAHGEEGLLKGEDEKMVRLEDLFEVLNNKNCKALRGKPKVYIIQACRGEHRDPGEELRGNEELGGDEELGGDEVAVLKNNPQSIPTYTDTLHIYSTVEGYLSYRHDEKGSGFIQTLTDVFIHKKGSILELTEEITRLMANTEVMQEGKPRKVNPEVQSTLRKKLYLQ

T2: radiolabeled murine caspase-3 (UniProt P70677)
T2 sequence: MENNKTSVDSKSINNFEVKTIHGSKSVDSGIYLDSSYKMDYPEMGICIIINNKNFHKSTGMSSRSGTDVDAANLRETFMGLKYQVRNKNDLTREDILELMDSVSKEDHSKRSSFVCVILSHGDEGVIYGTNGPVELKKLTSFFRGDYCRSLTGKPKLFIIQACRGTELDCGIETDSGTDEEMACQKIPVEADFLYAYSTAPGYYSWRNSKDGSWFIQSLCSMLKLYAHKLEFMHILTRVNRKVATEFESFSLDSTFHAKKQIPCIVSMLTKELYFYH

T3: 35S-methionine-labeled His6-tagged murine caspase-14
T3 chain: T1 sequence

B1: purified murine granzyme B (protein)
chain: IIGGHEVKPHSRPYMALLSIKDQQPEAICGGFLIREDFVLTAAHCEGSIINVTLGAHNIKEQEKTQQVIPMVKCIPHPDYNPKTFSNDIMLLKLKSKAKRTRAVRPLNLPRRNVNVKPGDVCYVAGWGRMAPMGKYSNTLQEVELTVQKDRECESYFKNRYNKTNQICAGDPKTKRASFRGDSGGPLVCKKVAAGIVSYGYKDGSPPRAFTKVSSFLSWIKKTMKSS
B2: purified murine caspase-2 (protein)
chain: GPPCLLVKPCTPEFYQAHYQLAYRLQSQPRGLALVLSNVHFTGEKDLEFRSGGDVDHTTLVTLFKLLGYNVHVLHDQTAQEMQEKLQNFAQLPAHRVTDSCVVALLSHGVEGGIYGVDGKLLQLQEVFRLFDNANCPSLQNKPKMFFIQACRGDETDRGVDQQDGKNHTQSPGCEESDAGKEELMKMRLPTRSDMICGYACLKGNAAMRNTKRGSWYIEALTQVFSERACDMHVADMLVKVNALIKEREGYAPGTEFHRCKEMSEYCSTLCQQLYLFPGYPPT
B3: purified murine caspase-3 (protein)
chain: SGIYLDSSYKMDYPEMGICIIINNKNFHKSTGMSSRSGTDVDAANLRETFMGLKYQVRNKNDLTREDILELMDSVSKEDHSKRSSFVCVILSHGDEGVIYGTNGPVELKKLTSFFRGDYCRSLTGKPKLFIIQACRGTELDCGIETDSGTDEEMACQKIPVEADFLYAYSTAPGYYSWRNSKDGSWFIQSLCSMLKLYAHKLEFMHILTRVNRKVATEFESFSLDSTFHAKKQIPCIVSMLTKELYFYH
B4: purified murine caspase-7 (protein)
chain: AKPDRSSIISSILLKKKRNASAGPVRTGRDRVPTYLYRMDFQKMGKCIIINNKNFDKATGMDVRNGTDKDAGALFKCFQNLGFEVTVHNDCSCAKMQDLLRKASEEDHSNSACFACVLLSHGEEDLIYGKDGVTPIKDLTAHFRGDRCKTLLEKPKLFFIQACRGTELDDGIQADSGPINDIDANPRNKIPVEADFLFAYSTVPGYYSWRNPGKGSWFVQALCSILNEHGKDLEIMQILTRVNDRVARHFESQSDDPRFNEKKQIPCMVSMLTKELYFSR
B5: purified murine caspase-1 (protein)
chain: NKEDGTFPGLTGTLKFCPLEKAQKLWKENPSEIYPIMNTTTRTRLALIICNTEFQHLSPRVGAQVDLREMKLLLEDLGYTVKVKENLTALEMVKEVKEFAACPEHKTSDSTFLVFMSHGIQEGICGTTYSNEVSDILKVDTIFQMMNTLKCPSLKDKPKVIIIQACRGEKQGVVLLKDSVRDSEEDFLTDAIFEDDGIKKAHIEKDFIAFCSSTPDNVSWRHPVRGSLFIESLIKHMKEYAWSCDLEDIFRKVRFSFEQPEFRLQMPTADRVTLTKRFYLFPGH
B6: purified murine caspase-6 (protein)
chain: GFYKSREVFDPAEQYKMDHKRRGVALIFNHERFFWHLTLPERRGTNADRDNLTRRFSDLGFEVKCFNDLRAEELLLKIHEVSTSSHIDADCFICVFLSHGEGNHVYAYDAKIEIQTLTGLFKGDKCQSLVGKPKIFIIQACRGSQHDVPVVPLDMVDHQTDKLDNVTQVDAASVYTLPAGADFLMCYSVAEGYYSHRETVNGSWYIQDLCEMLARYGSSLEFTELLTLVNRKVSQRRVDFCKDPDAIGKKQVPCFASMLTKKLHFCPKPSK
B7: purified murine caspase-11 (protein)
chain: PGSHHGEANLEMEEPEESLNTLKLCSPEEFTRLCREKTQEIYPIKEANGRTRKALIICNTEFKHLSLRYGANFDIIGMKGLLEDLGYDVVVKEELTAEGMESEMKDFAALSEHQTSDSTFLVLMSHGTLHGICGTMHSEKTPDVLQYDTIYQIFNNCHCPGLRDKPKVIIVQACRGGNSGEMWIRESSKPQLCRGVDLPRNMEADAVKLSHVEKDFIAFYSTTPHHLSYRDKTGGSYFITRLISCFRKHACSCHLFDIFLKVQQSFEKASIHSQMPTIDRATLTRYFYLFPGN

Legend:
[1] = tested on: T1, 35S-methionine-labeled His6-tagged murine caspase-14
[2] = molecular target: T2, radiolabeled murine caspase-3
[3] = molecular target: T3, 35S-methionine-labeled His6-tagged …

| Molecule | in vitro cleavage of 35S-methionine-labeled His6-tagged murine caspase-14, SDS-PAGE and autoradiography [1] | efficiency of proteolysis by serial 1:5 dilution of caspase-8 lysate, caspase-3 against caspase-14 as substrate [2] | in vitro cleavage of radiolabeled caspase-14 [3] |
| --- | --- | --- | --- |
| murine caspase-8 (prodomain-deleted, lysate of E. coli expressing pLT-DpromCASP-8) | murine caspase-8 cleaved this 35.5 kDa murine caspase-14 weakly into 24 kDa (p18) and 11 kDa (p11) fragments | proteolytic activity of caspase-8 was at least 1000 times more efficient on caspase-3 than on murine caspase-14 | – |
| B1 | – | – | none of the active enzyme preparations were able to cleave caspase-14 |
| B2 | – | – | none of the active enzyme preparations were able to cleave caspase-14 |
| B3 | – | – | none of the active enzyme preparations were able to cleave caspase-14 |
| B4 | – | – | none of the active enzyme preparations were able to cleave caspase-14 |
| B5 | – | – | none of the active enzyme preparations were able to cleave caspase-14 |
| B6 | – | – | none of the active enzyme preparations were able to cleave caspase-14 |
| B7 | – | – | none of the active enzyme preparations were able to cleave caspase-14 |

Reference: patent US20020034812
